This note sets out measurements from article PMC10720262 (2023).

Numbering of substitutions follows the chain as printed.

B1: CL-509025 (antibody, V domains shown)
VH: QVQLVESGGGVVQPGRSLRLSCVASGFTFSDYGMHWVRQAPGKGLEWVAVIWYDGTKEFFADSVKGRFTISRDNSKDTLYLQMNSLRAEDTGIYYCATYKWNSHLDYWGQGTLVTVSS
VL: EIVLTQSPATLSLSPGERATLSCRASQTISSYLAWYQQKPGQAPRLLIYDASNRATGIPARFSGSGSGTDFTLTISSLEPEDFTVYYCQQRSNWPLTFGGGTKVGIK
modifications: peptides N-terminally acetylated and C-terminally amidated
B2: CL-437762 (antibody, V domains shown)
VH: QVQLVESGGGVVQPGRSLRLSCAASGFTFSNYGMYWVRQAPGKGLEWVAVIWYDGSNKYYADSVKGRFTISRDNSKNTLYLQMNSLRAEDTAFYYCARPQYSGSGSYFDYWGQGTLVTVSS
VL: not shown
modifications: peptides N-terminally acetylated and C-terminally amidated
B3: CL-510453 (antibody, V domains shown)
VH: QVQLVESGGGVVQPGRSLRLSCAASGFTFSSYGMHWVRQAPDKGLEWVAIIWYDGSKKYYADSVKGRFTVSRDNSKNTLYLQMNSLRAEDTAVFYCARSFDYESGGFYSFDYWGQGTLVSVSS
VL: DIQMTQSPSTLSASVGDRVTITCRASQSISSWLAWYQQKPGKAPKLLIYRASSLASGVPSRFSGSGSGTEFTLTISSLQPDDFATYYCQQYNSYWTFGQGTKVEFK
modifications: peptides N-terminally acetylated and C-terminally amidated
B4: CL-445827 (antibody, V domains shown)
VH: QVQLVASGGGVVQPGRSLRLSCVASGFTFSFFGMHWVRQTPGRGLEWVAIIWYDGGHKFYADSVKGRFTISRDNSKDTLYLQMNSLRAEDTAVYYCARAEDNMARGNIDYSKYGMDVWGQGTTVTVSS
VL: B3 VL with A13V, V15I, S31T, R50K, S53N, A55E, E70D, S77G, N92F, F105I
modifications: peptides N-terminally acetylated and C-terminally amidated
B5: CL-514146 (antibody, V domains shown)
VH: QVQLVESGGGVVQPGRSLRLSCAVSGFTFSNSGMHWVRQAPGKGLEWVAIIWYDGNNKFYADSVKGRFTISRDNSKNTLYLQMNSLRAEDTSIYYCARAYPSGNYGDKYGMDVWGQGTTVTVSS
VL: B3 VL with Y36F, K42N, R50K, A55E, S76N, Y94F, F105I
modifications: peptides N-terminally acetylated and C-terminally amidated
B6: CL-509494 (antibody, V domains shown)
VH: QVQLVESGGGVVQPGRSLRLSCAASGFTFSNFGMHWVRQSPGRGLEWVAIIWYDGSHKFYADSVKGRFTISRDNSKNTLYLQMNSLRAEDTAVYYCAKSEQRTNDHYYKYGMDVWGQGTTVTVST
VL: B3 VL with K45T, R50K, A55E, N92T, S93N, F105I
modifications: peptides N-terminally acetylated and C-terminally amidated
B7: CL-513780 (antibody, V domains shown)
VH: QVQLVESGGGVVQPGRSLRLSCTASGFIFSNYGMYWVRQAPGKGLDWVALIWYDGSNKYYVGSVKGRFTISRDNSKNTLYLQMNSLRAEDTAVYYCARAGKYSGSGSYLDSWGQGTLVTVSS
VL: B3 VL with Q6P, T10I, S28N, R50K, A55E, Y87F, N92Y, F105I
modifications: peptides N-terminally acetylated and C-terminally amidated
B8: CL-512264 (antibody, V domains shown)
VH: QVQLVESGGGVVQPGRSLRLSCVTSGFTFSNFGMHWVRQAPGKGLEWVAIIWYDGSNKFYADSLKGRFTISRDNSKNTLFLQMNSLRAEDTAVYYCARAHTVTTANDKYGTDVWGQGTTVTVSS
VL: B3 VL with Q38H, R50K, A55E, Y87F, F105I
modifications: peptides N-terminally acetylated and C-terminally amidated
B9: CL-515284 (antibody, V domains shown)
VH: QVQLVGSGGGVVQSGRSLRLSCAASGFTFSNFGMHWVRQTPDKGLEWLAIIWYDGSHKFYVDSVKGRFTISRDNSMNTLFLQMNSLRAEDTGVYYCVRSWNYADSKYGMDVWGQGTTVTVSS
VL: B3 VL with K45N, R50K, A55E, N92Y, S93N, F105I
modifications: peptides N-terminally acetylated and C-terminally amidated
B10: CL-510700 (antibody, V domains shown)
VH: QVQLVESGGGVVQPGRSLRLSCAASGFTFSDFGMHWVRQTPGKGLEWVAIIWYDGSNKFYADSVKGRFTISRDNSKNTLFLQMNSLRAEDTAVYYCARSGVYYGSGSHFDYWGQGTLVTVSS
VL: B3 VL with Q38L, R50K, S53N, A55E, S56T, S60L, W95L, F105I
modifications: peptides N-terminally acetylated and C-terminally amidated
B11: CL-531383 (antibody, V domains shown)
VH: QVQLVESGGGVVQPGRSLRLSCAASGFTFSSFGMHWVRQTPVKGLEWVALIWYDGSHKFYADSVRGRFIISRDNSKNTLFLQMNSLRAEDTAIYYCAKVINYGSGNYYNNYKYTMDVWGQGTTVTVSS
VL: B3 VL with L46V, R50K, A55E, S93T, F105I
modifications: peptides N-terminally acetylated and C-terminally amidated
B12: CL-510092 (antibody, V domains shown)
VH: QVQLVESGGGVVQPGTSLRLSCAASGFTFSNFGMYWVRQAPGKGLEWVALIWYDGSNKFYEDSVKGRFTISRDNSKNTLYLQMNSLRAEDTAVYYCAKDGGYSGPGKYGFFRHWGQGSLVTVSS
VL: B3 VL with M4L, S31N, R50K, A55E, S65N, Q89H, S93F, F105I
modifications: peptides N-terminally acetylated and C-terminally amidated
B13: CL-513279 (antibody, V domains shown)
VH: QVQLVESGGGVVQPGRSLRLSCAASGFTFSNFGMHWVRQAPVKGLEWVALIWYDGSNKFYADSVQGRFTISRDNSKNILYLQMNSLRAEDTAVYYCAKVEARGVDYHSYGMDVWGQGTTVTVSS
VL: B3 VL with K45Q, R50K, A55E, N92K, S93Y, F105I
modifications: peptides N-terminally acetylated and C-terminally amidated
B14: CL-440324 (antibody, V domains shown)
VH: QVQLVESGGGVVQPGRSLRLSCAASGFTFRNHGLHWVRQAPGKGLEWVAIIWFDGSNKFYADSVKGRFTISRDNSKNTLYLQMNSLRAEDTAIYYCARVSSHDNGDYGDFDYWGQGTLVTVSS
VL: B3 VL with S28N, S31N, R50K, A55E, S77G, N92K, S93T, K102Q, F105I
modifications: peptides N-terminally acetylated and C-terminally amidated
B15: CL-462911 (antibody, V domains shown)
VH: QVHLVESGGGVVQPGRSLTLSCAASGFTFSSCGMHWVRQAPGKGLEWLAVIWYDGSNKYYADSVKGRFTISRDNSKNTLYLQMNSLRAEDTAVYYCARDGGYVRDYYYGMDVWGQGTTVTVSS
VL: not shown
modifications: peptides N-terminally acetylated and C-terminally amidated
B16: CL-441734 (antibody, V domains shown)
VH: QVQLVESGGGVVQPGRSLRLSCAASGFTFSSHGMHWVRQAPVKGLEWVAVIWYDGSNKYYADSVKGRFTISRDNSKNTLYLQMNSLRAEDTAVYYCARVEYSRSSGDYYYYGLDVWGQGTTVTVSS
VL: EIVMTQSPATLSVSPGERATLSCRASQSVSSNLAWYQQKPGQAPRLLIYGASTRATGIPARFSGSGSGTEFTLTISSLQSEDFAVYYCQQYDNWWTFGQGTKVEIK
modifications: peptides N-terminally acetylated and C-terminally amidated
B17: CL-511073 (antibody, V domains shown)
VH: QVQLVESGGGVVQPGRSLRLSCAASGFSFSSHGMHWVRQAPGKGLEWVSIIWYDGSNKFYADSVKGRFTISRDNSKNTLYLQMNSLRAEDTAVYYCARDGYDVLTGHYNWFDPWGQGTLVTVSS
VL: B16 VL with N32K, E70D, D92N, Q99H
modifications: peptides N-terminally acetylated and C-terminally amidated
B18: CL-449724 (antibody, V domains shown)
VH: QVHLVASGGGVVQPGRSLRLSCEVTGFTFSSYGMHWVRQDPGRGLEWVAIIWYDGSNKFYADSVKGRFTISRDNSKNTLYLQMNSLRAEDTAVYYCARSYGILTGYQTKYGMDVWGQGTTVTVSS
VL: not shown
modifications: peptides N-terminally acetylated and C-terminally amidated
B19: CL-464277 (antibody, V domains shown)
VH: B18 VH with H3Q, E23A, T25S, S30R, S31N, N57Y, I102S, Y106D, T122S
VL: not shown
modifications: peptides N-terminally acetylated and C-terminally amidated
B20: CL-510632 (antibody, V domains shown)
VH: QVQLVESGGGVVQPGRSLRLSCAASGFTFSNYGMHWVRQAPGKGLEWVAVIWYDGSNKFYADSVKGRFTISRDNSKNTLYLQTNSLRAEDTAVYYCARVYYYDSGNYLDYWGQGTLVAVSS
VL: DIQMTQSPSSVSASVGDRVTITCRASQGINNCLAWYQQKPGKAPKLLIYAASSLQSGVPSRFSGSGSGTDFTLTISNLQPEDFATYCCQQANSFPWTFGQGTKVEIK
modifications: peptides N-terminally acetylated and C-terminally amidated
B21: CL-447376 (antibody, V domains shown)
VH: QVQLVESGGGVVQPGRSLRLSCAASGFNFNNYGMHWVRQAPVMGLEWVAIIWYDGSNKFYADSVKGRFTISRDNSQNTLFLQMNSLRAEDTGIYYCARSGGEMGNFDYWGQGTLVTVSS
VL: DIVMTQSPLSLPVTLGQPASISCRSSQSLVYSNGDTYLDWFQLRPGQSPRRLIYKVSHRDSGVPDRFSGSGSGTEFTLRISRVEAEDVGIYYCMQGTHYWTFGQGTEVEIK
modifications: peptides N-terminally acetylated and C-terminally amidated
B22: CL-513094 (antibody, V domains shown)
VH: QVQLVESGGGVVQPGRSLRLSCAASGFTFSGSGMHWVRQAPGRGLEWVAIIWYDGSHKYYVDSVQGRFIISRDNSKNTLYLEMNNLRVEDTAVYYCVRAYPSGSSNDKYGMDVWGQGTTVTVSS
VL: not shown
modifications: peptides N-terminally acetylated and C-terminally amidated
B23: CL-437934 (antibody, V domains shown)
VH: QVQLVASGGAVVQPGRSLRLSCAASGFTFSNSGMHWVRQAPGQGLEWVAIIWYDGGNKYYADSVKGRFTISRDNSKNTLYLQMNSLRAEDTAVYYCVRAYYEILTTYNKDCCYGMDVWGQGTTVTVSS
VL: not shown
modifications: peptides N-terminally acetylated and C-terminally amidated
B24: CL-447737 (antibody, V domains shown)
VH: QVQLVESGGGVVQPGRSLRLSCAASGFTFSSYGMHWVRQAPGKGLEWVAIIWFDGSNIFYEDSVKGRFTISRDNSKNTLYLQMNSLRAEDTAVYYCAKVWNYDSDYYSMDVWGQGTTVTVSS
VL: not shown
modifications: peptides N-terminally acetylated and C-terminally amidated
B25: CL-509177 (antibody, V domains shown)
VH: QVQLVESGGGVVQPGRSLRLSCAASGFSFSSYGMHWVRQTPGKGLEWVAIIWYDGSNKFYADSVKGRFIISRDNSKNTLYLQMNSLRAEDTAVYYCARDGGYSTSAGDFDYWGQGTLVTVSS
VL: EIVLTQSPGTLSLSPGERATLSCRASQSVSSSYLAWYQQKPGQAPRLLIYGASSRATGIPDRFSGRGSGTDFTLTISRLEPEDFAVYYCQQYVSSFTFGPGTKVDIN
modifications: peptides N-terminally acetylated and C-terminally amidated

For the assay, the target named is PfCSP full length (Plasmodium falciparum (isolate NF54), UniProt P19597). Description: ELISA AUC. (In general: ELISA stands for enzyme-linked immunosorbent assay.)
Sequence of PfCSP full length (P19597 20-375): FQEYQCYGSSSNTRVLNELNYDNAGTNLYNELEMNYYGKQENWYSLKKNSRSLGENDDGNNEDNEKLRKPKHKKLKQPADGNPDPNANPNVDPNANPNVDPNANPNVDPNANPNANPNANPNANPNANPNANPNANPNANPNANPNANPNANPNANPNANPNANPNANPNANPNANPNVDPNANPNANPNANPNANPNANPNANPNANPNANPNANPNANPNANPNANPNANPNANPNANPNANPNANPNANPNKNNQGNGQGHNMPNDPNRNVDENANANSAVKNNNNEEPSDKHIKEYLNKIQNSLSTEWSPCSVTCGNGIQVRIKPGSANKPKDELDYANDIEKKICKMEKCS
In the case of B1, the binding score was 1.64.

The molecule B2 yielded a binding score of 2.5.

B3 came in with a binding score of 2.07.

Turning to B4, the binding score stood at 2.5.

As to B5, the binding score is 2.39.

Molecule B6 had a binding score of 1.93.

As for B7, the binding score came to 2.48.

Regarding B8, the binding score was determined as 2.54.

B9 displayed a binding score of 2.19.

In turn, B10 came in with a binding score of 1.9.

B11 gave a binding score of 2.64.

For the molecule B12, the binding score is 2.38.

B13: the binding score is 2.06.

For B14, the binding score came out at 2.6.

Consider B15, for which the binding score worked out at 1.4.

Take B16: the binding score was determined as 2.3.

B17 came in with a binding score of 2.15.

In turn, B18 displayed a binding score of 2.5.

B19 came in with a binding score of 2.5.

In the case of B20, the binding score turned out to be 1.9.

Turning to B21, the binding score stood at 2.5.

Take B22: the binding score is 2.14.

Consider B23, for which the binding score stood at 2.4.

For B24, the binding score turned out to be 2.4.

B25 had a binding score of 1.17.
